Source: patent EP4696707A1

B1: Shortened substance (8-35) amino acid Ala substituted (16) (peptide)
peptide: VDRGAGSIAEAGGAFGKREQAEEERYFR
B2: Shortened substance (8-35) amino acid Ala substituted (30) (peptide)
peptide: VDRGAGSIREAGGAFGKREQAEAERYFR
B3: Shortened substance (8-35) amino acid Ala substituted (11) (peptide)
peptide: VDRAAGSIREAGGAFGKREQAEEERYFR
B4: Shortened substance (8-35) amino acid Ala substituted (25) (peptide)
peptide: VDRGAGSIREAGGAFGKAEQAEEERYFR
B5: Shortened substance (8-35) amino acid Ala substituted (29) (peptide)
peptide: VDRGAGSIREAGGAFGKREQAAEERYFR
B6: Shortened substance (8-35) amino acid Ala substituted (34) (peptide)
peptide: VDRGAGSIREAGGAFGKREQAEEERYAR
B7: Shortened substance (8-35) amino acid Ala substituted (24) (peptide)
peptide: VDRGAGSIREAGGAFGAREQAEEERYFR
B8: Shortened substance (8-35) amino acid Ala substituted (33) (peptide)
peptide: VDRGAGSIREAGGAFGKREQAEEERAFR
B9: Shortened substance (8-35) amino acid Ala substituted (32) (peptide)
peptide: VDRGAGSIREAGGAFGKREQAEEEAYFR
B10: Shortened substance (8-35) amino acid Ala substituted (17) (peptide)
peptide: VDRGAGSIRAAGGAFGKREQAEEERYFR
B11: Shortened substance (8-35) amino acid Ala substituted (15) (peptide)
peptide: VDRGAGSAREAGGAFGKREQAEEERYFR
B12: Shortened substance (8-35) (peptide)
peptide: VDRGAGSIREAGGAFGKREQAEEERYFR
B13: Shortened substance (8-35) amino acid Ala substituted (19) (peptide)
peptide: VDRGAGSIREAAGAFGKREQAEEERYFR
B14: Shortened substance (8-35) amino acid Ala substituted (20) (peptide)
peptide: VDRGAGSIREAGAAFGKREQAEEERYFR
B15: Shortened substance (8-35) amino acid Ala substituted (26) (peptide)
peptide: VDRGAGSIREAGGAFGKRAQAEEERYFR
B16: Shortened substance (8-35) amino acid Ala substituted (13) (peptide)
peptide: VDRGAASIREAGGAFGKREQAEEERYFR
B17: Shortened substance (8-35) amino acid Ala substituted (10) (peptide)
peptide: VDAGAGSIREAGGAFGKREQAEEERYFR
B18: Shortened substance (8-35) amino acid Ala substituted (22) (peptide)
peptide: VDRGAGSIREAGGAAGKREQAEEERYFR
B19: Shortened substance (8-35) amino acid Ala substituted (9) (peptide)
peptide: VARGAGSIREAGGAFGKREQAEEERYFR
B20: Shortened substance (8-35) amino acid Ala substituted (23) (peptide)
peptide: VDRGAGSIREAGGAFAKREQAEEERYFR
B21: Shortened substance (8-35) amino acid Ala substituted (27) (peptide)
peptide: VDRGAGSIREAGGAFGKREAAEEERYFR
B22: Shortened substance (8-35) amino acid Ala substituted (8) (peptide)
peptide: ADRGAGSIREAGGAFGKREQAEEERYFR
B23: Shortened substance (8-35) amino acid Ala substituted (14) (peptide)
peptide: VDRGAGAIREAGGAFGKREQAEEERYFR
B24: Shortened substance (8-35) amino acid Ala substituted (31) (peptide)
peptide: VDRGAGSIREAGGAFGKREQAEEARYFR
B25: Shortened substance (8-35) amino acid Ala substituted (35) (peptide)
peptide: VDRGAGSIREAGGAFGKREQAEEERYFA

biological target: ATP5B protein (UniProt P06576); experiment: SPR, ATP5B amine-coupled to CM5 chip, peptide in flow at 50 µl/min; binding relative to SEQ ID NO: 12
Sequence (P06576 48-529 limits assumed): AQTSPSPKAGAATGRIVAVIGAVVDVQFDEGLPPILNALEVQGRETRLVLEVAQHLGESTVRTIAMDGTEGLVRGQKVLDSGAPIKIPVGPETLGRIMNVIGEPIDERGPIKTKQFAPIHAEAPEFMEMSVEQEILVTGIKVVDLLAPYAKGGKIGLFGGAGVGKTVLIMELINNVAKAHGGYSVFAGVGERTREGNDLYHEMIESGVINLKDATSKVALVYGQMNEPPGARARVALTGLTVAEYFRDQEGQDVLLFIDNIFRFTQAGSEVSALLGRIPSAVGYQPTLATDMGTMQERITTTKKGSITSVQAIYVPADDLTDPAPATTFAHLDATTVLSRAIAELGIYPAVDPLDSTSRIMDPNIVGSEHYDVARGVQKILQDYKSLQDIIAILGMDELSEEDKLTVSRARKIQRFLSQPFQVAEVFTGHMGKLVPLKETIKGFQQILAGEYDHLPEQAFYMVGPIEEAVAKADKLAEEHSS

Binding (%)	Binder
97	B1
94	B2
100	B3
85.2	B4
96.7	B5
92.1	B6
100	B7
146	B8
426	B9
169	B10
99.3	B11
100	B12
89.6	B13
68	B14
94.1	B15
98.5	B16
104	B17
94	B18
91.6	B19
102	B20
89.5	B21
101	B22
98.8	B23
158	B24
110	B25
